# Tested on: ETAA1-ATR activating domain (ETAA1-AAD)
# Sequence (chain, as listed by the source): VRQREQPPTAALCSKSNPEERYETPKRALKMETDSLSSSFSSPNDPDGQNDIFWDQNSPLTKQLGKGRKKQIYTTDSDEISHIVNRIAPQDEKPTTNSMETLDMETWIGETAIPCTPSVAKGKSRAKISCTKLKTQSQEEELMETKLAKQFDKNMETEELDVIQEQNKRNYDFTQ
# Chain of ATR (ATM and Rad3-related kinase) (chain, as listed by the source): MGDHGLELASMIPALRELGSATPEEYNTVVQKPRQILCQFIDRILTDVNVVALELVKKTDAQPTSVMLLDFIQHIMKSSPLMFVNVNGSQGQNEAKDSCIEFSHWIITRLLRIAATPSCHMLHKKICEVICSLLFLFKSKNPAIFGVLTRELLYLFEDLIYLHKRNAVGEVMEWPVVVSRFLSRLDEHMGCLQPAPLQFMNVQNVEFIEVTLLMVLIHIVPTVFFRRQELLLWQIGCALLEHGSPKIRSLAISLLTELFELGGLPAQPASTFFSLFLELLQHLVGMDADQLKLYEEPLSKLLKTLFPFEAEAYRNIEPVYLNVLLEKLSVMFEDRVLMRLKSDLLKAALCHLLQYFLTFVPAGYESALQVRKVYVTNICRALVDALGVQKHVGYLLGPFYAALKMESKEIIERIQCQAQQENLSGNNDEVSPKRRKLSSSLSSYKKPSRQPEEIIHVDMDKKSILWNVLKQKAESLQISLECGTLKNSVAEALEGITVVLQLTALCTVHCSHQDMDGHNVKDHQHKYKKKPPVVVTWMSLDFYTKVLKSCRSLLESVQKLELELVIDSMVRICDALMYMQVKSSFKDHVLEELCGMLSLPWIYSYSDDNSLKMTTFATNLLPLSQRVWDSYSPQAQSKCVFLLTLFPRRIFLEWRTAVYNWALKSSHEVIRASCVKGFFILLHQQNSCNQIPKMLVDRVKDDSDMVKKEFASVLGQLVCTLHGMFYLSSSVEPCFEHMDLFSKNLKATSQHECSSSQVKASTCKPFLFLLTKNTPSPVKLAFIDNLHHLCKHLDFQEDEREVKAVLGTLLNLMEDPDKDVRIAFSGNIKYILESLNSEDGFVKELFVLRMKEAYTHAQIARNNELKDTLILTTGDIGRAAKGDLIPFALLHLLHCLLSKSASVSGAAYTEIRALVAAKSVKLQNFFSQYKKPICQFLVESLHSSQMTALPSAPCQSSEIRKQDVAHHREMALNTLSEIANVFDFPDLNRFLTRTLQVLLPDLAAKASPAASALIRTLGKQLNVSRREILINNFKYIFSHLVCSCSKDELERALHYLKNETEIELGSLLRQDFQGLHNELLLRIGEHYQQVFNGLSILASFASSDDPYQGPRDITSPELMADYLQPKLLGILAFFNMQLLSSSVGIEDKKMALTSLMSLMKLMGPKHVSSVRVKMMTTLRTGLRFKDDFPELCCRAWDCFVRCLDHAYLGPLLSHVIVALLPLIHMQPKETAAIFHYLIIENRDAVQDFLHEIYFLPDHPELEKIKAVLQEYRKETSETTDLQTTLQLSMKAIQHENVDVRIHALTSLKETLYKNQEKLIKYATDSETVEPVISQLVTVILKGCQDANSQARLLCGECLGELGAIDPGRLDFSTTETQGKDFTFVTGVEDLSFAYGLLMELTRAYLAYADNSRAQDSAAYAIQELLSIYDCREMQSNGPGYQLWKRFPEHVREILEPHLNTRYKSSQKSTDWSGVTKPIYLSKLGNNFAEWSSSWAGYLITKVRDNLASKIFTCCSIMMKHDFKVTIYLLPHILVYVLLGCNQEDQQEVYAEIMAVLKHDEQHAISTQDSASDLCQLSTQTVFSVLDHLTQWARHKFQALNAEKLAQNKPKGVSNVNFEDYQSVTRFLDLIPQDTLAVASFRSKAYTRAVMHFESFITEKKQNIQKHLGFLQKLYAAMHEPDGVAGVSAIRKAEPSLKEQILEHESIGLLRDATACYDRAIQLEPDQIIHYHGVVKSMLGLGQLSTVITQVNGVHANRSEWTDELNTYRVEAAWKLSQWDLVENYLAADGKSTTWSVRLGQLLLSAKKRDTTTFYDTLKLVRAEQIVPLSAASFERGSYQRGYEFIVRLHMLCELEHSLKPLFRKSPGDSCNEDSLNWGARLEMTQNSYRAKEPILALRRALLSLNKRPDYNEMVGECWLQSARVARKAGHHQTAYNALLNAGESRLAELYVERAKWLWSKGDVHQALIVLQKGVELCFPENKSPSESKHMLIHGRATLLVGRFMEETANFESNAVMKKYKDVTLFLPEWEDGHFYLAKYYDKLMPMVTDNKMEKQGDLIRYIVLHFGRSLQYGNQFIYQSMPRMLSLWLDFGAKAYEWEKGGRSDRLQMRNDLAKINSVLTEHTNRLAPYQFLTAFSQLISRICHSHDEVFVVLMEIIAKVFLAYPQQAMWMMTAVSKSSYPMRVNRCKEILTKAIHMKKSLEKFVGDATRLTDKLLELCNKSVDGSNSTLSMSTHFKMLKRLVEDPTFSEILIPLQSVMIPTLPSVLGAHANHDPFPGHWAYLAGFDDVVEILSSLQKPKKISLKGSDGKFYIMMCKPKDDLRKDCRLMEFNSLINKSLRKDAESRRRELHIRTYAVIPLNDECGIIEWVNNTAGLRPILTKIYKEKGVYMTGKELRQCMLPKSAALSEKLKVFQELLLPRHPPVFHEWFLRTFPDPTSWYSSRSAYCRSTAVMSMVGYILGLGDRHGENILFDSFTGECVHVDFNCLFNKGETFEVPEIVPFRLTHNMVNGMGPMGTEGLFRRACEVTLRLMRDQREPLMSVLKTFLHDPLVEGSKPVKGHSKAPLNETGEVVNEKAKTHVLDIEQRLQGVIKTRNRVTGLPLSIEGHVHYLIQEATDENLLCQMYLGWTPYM
substance,measurement,value
ATR (ATM and Rad3-related kinase),"phosphorylation of H2AX, CHK1 and CHK2 (immunoblot and FACS in Dox-iETAA1 ESCs)",ATR activation through ETAA1 expression leads to the phosphorylation of H2AX and CHK1 but not CHK2 in ESCs

# From patent US20200131473
